Results as given in the RNAGym collection of RNA variant scans (doi:10.7554/elife.90254).

B1: OR4K15 (parent)
chain: GUUAACGGUCAUAGGCCAUGGAAACUAGGAGCACCAUUUCGCUGCCAGUGAAGAAAUGAACAAAGAAAAUCUGGGCCAGGCAGGCAUCAAAAGAAAUAGUCUUGCGCUCAACCAGAAAGUCUGUAAUCAUUUUAAGGGUA

Variants of: B1
Assay: self-cleavage, relative activity (ratio to wild type); higher = more cleavage; in vitro, sequencing; the parent is a self-cleaving ribozyme

Compared with G14C A30G, U87C G123A is higher in self-cleavage: 1.66 for the first, 1.78 for the second.

Compared with G8A A95G, A66U A89G is higher in self-cleavage: 1.52 for the first, 1.7 for the second.

First: C45U U120C
Second: A68U U70C
The self-cleavage of the first is higher: 1.06 for the first, 0.43 for the second.

Going from U72C A86C to A47G A52U, the self-cleavage rises from 0.28 to 1.73.

Compared with A30U U120C, U38C C88A is higher in self-cleavage: 1.29 for the first, 1.74 for the second.

Compared with A18U A24U, A54G G104A is lower in self-cleavage: 1.36 for the first, 0.09 for the second.

Compared with U70C U108A, A60U U122A is higher in self-cleavage: 0.03 for the first, 2.08 for the second.

Going from A11U A54U to U19C A118U, the self-cleavage falls from 2.18 to 0.77.

Going from U49A A135G to U122C U132C, the self-cleavage falls from 1.08 to 0.49.

First: A55G U72C
Second: G15A A27G
The self-cleavage of the first is lower: 0.28 for the first, 1.23 for the second.

First: U72A A126G
Second: U38C A68G
The self-cleavage of the first is lower: 0.16 for the first, 0.84 for the second.

Compared with A82C U131A, A64U A98U is higher in self-cleavage: 0.14 for the first, 1.98 for the second.

Going from G73U C105U to A22G A118U, the self-cleavage rises from 0.01 to 1.05.

Going from A11U A110U to A52G U130G, the self-cleavage falls from 1.19 to 0.81.

First: A22G A89C
Second: A95G A126U
The self-cleavage of the first is lower: 1.28 for the first, 1.42 for the second.

First: A117U U131G
Second: U38C U49C
The self-cleavage of the first is higher: 1.38 for the first, 1.21 for the second.

Going from A36G G83U to U39C U120A, the self-cleavage rises from 0.41 to 2.52.

First: U103A A110U
Second: A23U U72A
The self-cleavage of the first is higher: 0.62 for the first, 0.41 for the second.

Compared with U39A A134U, A60G C109A is lower in self-cleavage: 2.44 for the first, 0.21 for the second.

First: C77A
Second: A5G C121A
The self-cleavage of the first is lower: 0.76 for the first, 1.89 for the second.

Going from A23G A135U to A33C A66U, the self-cleavage falls from 1.78 to 1.52.

Going from A23C U130C to A22U U57C, the self-cleavage falls from 0.85 to 0.84.

Going from A51C A52G to U131C A134G, the self-cleavage falls from 1.83 to 0.73.

First: A62G A86G
Second: G79A U132C
The self-cleavage of the first is higher: 1.4 for the first, 0.1 for the second.

Compared with A30G U39A, U9A A92G is higher in self-cleavage: 0.39 for the first, 1.08 for the second.

Going from A114U A118U to A47C U87C, the self-cleavage rises from 0.02 to 1.76.

Compared with U2A U72C, A94G U102C is higher in self-cleavage: 0.48 for the first, 1.87 for the second.

First: A62G A67U
Second: A66G C81G
The self-cleavage of the first is higher: 1.82 for the first, 0.18 for the second.

Going from A5G A92U to A33G A89G, the self-cleavage falls from 0.95 to 0.84.

Going from U43A U70C to A67U A110G, the self-cleavage falls from 0.98 to 0.25.

Going from G74A U124A to U87A A129C, the self-cleavage rises from 0.1 to 0.8.

First: C10U A47G
Second: U57C C121A
The self-cleavage of the first is lower: 0 for the first, 1.91 for the second.

First: A33G A92U
Second: A67G A96G
The self-cleavage of the first is lower: 0.42 for the first, 1.53 for the second.

Going from G29U A91G to U3A A30G, the self-cleavage falls from 1.67 to 0.63.

Going from A96C A140U to U43A U130C, the self-cleavage rises from 1.14 to 1.44.

Going from C40A U108A to C34A A82G, the self-cleavage rises from 0 to 0.76.

Compared with A59U A60G, A78G U130C is lower in self-cleavage: 1.32 for the first, 0.3 for the second.

Compared with A78G U120A, U43A U102A is higher in self-cleavage: 0.22 for the first, 0.78 for the second.

Compared with U102G G106C, U70C U100C is higher in self-cleavage: 0.01 for the first, 2 for the second.

First: A62G C101U
Second: U108C C109U
The self-cleavage of the first is higher: 0.41 for the first, 0.01 for the second.

First: C45G A116G
Second: A98G A114G
The self-cleavage of the first is higher: 0.77 for the first, 0.15 for the second.

Compared with U108C A118U, A117U A126G is higher in self-cleavage: 0 for the first, 0.89 for the second.

Compared with G7U A111G, A51U G58U is higher in self-cleavage: 0 for the first, 1.45 for the second.

First: A69G G123A
Second: U87G A140G
The self-cleavage of the first is higher: 1.43 for the first, 0.8 for the second.

First: A59G A140G
Second: G80A A82C
The self-cleavage of the first is higher: 1.25 for the first, 0.14 for the second.

Compared with U87A A90G, G53A A117G is higher in self-cleavage: 1.29 for the first, 2.26 for the second.

Compared with A5G A11U, C35U A92U is higher in self-cleavage: 0.86 for the first, 1.37 for the second.

Compared with U39G A92G, A134G G137U is lower in self-cleavage: 1.57 for the first, 0.44 for the second.

First: A47C G74A
Second: C42U A126G
The self-cleavage of the first is lower: 0.17 for the first, 0.91 for the second.

Going from U39A A78G to A51G C61G, the self-cleavage rises from 0.35 to 0.99.

First: A5G G137A
Second: A60G A98G
The self-cleavage of the first is higher: 0.6 for the first, 0.55 for the second.

Going from G80A A125U to A23G A111U, the self-cleavage falls from 0.24 to 0.23.

Compared with A33G G115U, A94U U120C is higher in self-cleavage: 0.06 for the first, 1.1 for the second.

First: C77U U87C
Second: U9C C76A
The self-cleavage of the first is higher: 1.31 for the first, 0.07 for the second.

Compared with A68G A134U, A86U A140G is higher in self-cleavage: 1.49 for the first, 1.62 for the second.

Compared with G74A A110G, U57A A68U is higher in self-cleavage: 0.02 for the first, 1.15 for the second.

First: A66C
Second: A24U U102C
The self-cleavage of the first is lower: 1.02 for the first, 1.26 for the second.

First: U38C A78G
Second: A51U A63G
The self-cleavage of the first is lower: 0.2 for the first, 1.62 for the second.

Compared with A47G U108C, A54G A94C is higher in self-cleavage: 0.01 for the first, 1.32 for the second.

Compared with A33U A62U, U87C U120A is lower in self-cleavage: 2.26 for the first, 0.99 for the second.

First: A18G A125G
Second: A62C A66G
The self-cleavage of the first is lower: 0.94 for the first, 1.51 for the second.

Compared with A47U U108C, A24C A59U is higher in self-cleavage: 0.01 for the first, 1.57 for the second.

First: A13G A116U
Second: G7A A56G
The self-cleavage of the first is lower: 0.41 for the first, 1.78 for the second.

Compared with G58A U102C, A4U A140G is lower in self-cleavage: 2.39 for the first, 1.16 for the second.

Compared with A63G A82U, G29A A117G is higher in self-cleavage: 0.24 for the first, 1.77 for the second.

Compared with C40U U131C, A5G A13U is lower in self-cleavage: 1.93 for the first, 0.95 for the second.

Going from C6G to A33C U38C, the self-cleavage falls from 1.83 to 1.53.

Compared with U26C A55G, A66G U131A is higher in self-cleavage: 0.31 for the first, 1.7 for the second.

Going from G29A U72C to U19A, the self-cleavage rises from 0.27 to 1.16.

First: A67U G106C
Second: A94G A134G
The self-cleavage of the first is lower: 0.01 for the first, 1.03 for the second.

First: A23U A140G
Second: A51C A117U
The self-cleavage of the first is higher: 1.38 for the first, 1.28 for the second.

Compared with A11G U97C, U43C A98G is lower in self-cleavage: 1.42 for the first, 0.44 for the second.

First: U19A A126G
Second: A18G G115U
The self-cleavage of the first is higher: 1.38 for the first, 0.14 for the second.

Going from A110U U120C to C35U A118G, the self-cleavage rises from 0.08 to 0.99.

Going from U72A A140G to A52G G106A, the self-cleavage falls from 0.32 to 0.01.

Compared with A54G A56C, A78G U100C is lower in self-cleavage: 1.4 for the first, 0.31 for the second.

Compared with U38C A126G, U43C A78U is lower in self-cleavage: 1.56 for the first, 0.4 for the second.

First: A59U U122C
Second: A60G A89C
The self-cleavage of the first is lower: 0.69 for the first, 1.36 for the second.

Compared with A23U U87C, A68G U102A is lower in self-cleavage: 1.08 for the first, 0.85 for the second.

First: A94G A140G
Second: G44A U108C
The self-cleavage of the first is higher: 1.53 for the first, 0.01 for the second.

Compared with U70C U72A, C16A A134G is higher in self-cleavage: 0.21 for the first, 0.96 for the second.

Going from A78U U131C to A82U A140G, the self-cleavage rises from 0.17 to 0.23.

First: G53A A118C
Second: A92G A125G
The self-cleavage of the first is higher: 0.99 for the first, 0.79 for the second.

Work on U72C U131C yielded a self-cleavage of 0.16.
